From publication PMC8154130 (ACS Omega, 2021)

Molecular target: the molecule itself
Test: native gel or EMSA

B1: C-terminal truncated DDX3X (domain or fragment, human, UniProt O00571 1-582, looked up)
chain: MSHVAVENALGLDQQFAGLDLNSSDNQSGGSTASKGRYIPPHLRNREATKGFYDKDSSGWSSSKDKDAYSSFGSRSDSRGKSSFFSDRGSGSRGRFDDRGRSDYDGIGSRGDRSGFGKFERGGNSRWCDKSDEDDWSKPLPPSERLEQELFSGGNTGINFEKYDDIPVEATGNNCPPHIESFSDVEMGEIIMGNIELTRYTRPTPVQKHAIPIIKEKRDLMACAQTGSGKTAAFLLPILSQIYSDGPGEALRAMKENGRYGRRKQYPISLVLAPTRELAVQIYEEARKFSYRSRVRPCVVYGGADIGQQIRDLERGCHLLVATPGRLVDMMERGKIGLDFCKYLVLDEADRMLDMGFEPQIRRIVEQDTMPPKGVRHTMMFSATFPKEIQMLARDFLDEYIFLAVGRVGSTSENITQKVVWVEESDKRSFLLDLLNATGKDSLTLVFVETKKGADSLEDFLYHEGYACTSIHGDRSQRDREEALHQFRSGKSPILVATAVAARGLDISNVKHVINFDLPSDIEEYVHRIGRTGRVGNLGLATSFFNERNINITKDLLDLLVEAKQEVPSWLENMAYEHHYKG
B1: binds.
